Results reported in article PMC6154639 (Molecules : A Journal of Synthetic Chemistry and Natural …, 2017).

Assays:
PaF4′OMT = target: T1, PaF4′OMT (Plagiochasma appendiculatum, UniProt A0A1X9Y2Y6); assay: HPLC product quantification, Michaelis-Menten fit; assay type: biochemical; details: substrate inhibition by luteolin; SAM as methyl donor; pH 7.5, 37 °C
T1 construct: pET32a fusion with N-terminal His6 tag kept (about 60 kDa on SDS-PAGE); E. coli BL21(DE3)
Source text: HPLC product quantification, Michaelis-Menten fit on PaF4′OMT

purified protein = substrate: O=c1cc(-c2ccc(O)cc2)oc2cc(O)cc(O)c12; assay: purified protein; details: SAM as methyl donor, no Mg2+ needed, pH 7.5, 37 °C
[1] = substrate: O=c1cc(-c2ccc(O)c(O)c2)oc2cc(O)cc(O)c12; assay: HPLC product quantification, Michaelis-Menten fit; assay type: biochemical, Plagiochasma appendiculatum; details: SAM as methyl donor, no Mg2+ needed, pH 7.5, 37 °C

## O=c1cc(-c2ccc(O)c(O)c2)oc2cc(O)cc(O)c12 [luteolin]
PaF4′OMT
  Ki: 292.8 ± 69.03 µM

B1: PaF4′OMT (Plagiochasma appendiculatum) (protein)
chain: MAVSTNGKTSEGVSDVSRTKNITNGNGMDMSVSANVASIGSVSATPLSPEDKRDHVVAINFLLGWVQTWALKAVVTMRIPDIISKAPMDALTAREIISQIQCKNPSNAVPLLERLMRFMVCKGFFSESVNGENEIAYELNGVSKMYVTDHEMSVVEWVNVAFHRSGIPALTRMHEAITEDVCPWDQAHGMPIYAHNPKFPELGDFFHKAMIVHSNFLTKILAEEYEGFKDFKVLVDVGGSLGNNLALILRFHPHLRGINFDMPSVIAGAPSFPGVEHVGGNFYESVPSGDAIMLMAILHNNSDENCVKILRSVHAALPEDGKLIVAEYIMTNEADHNGERIRLLDMLMLVQFRGGEERTFEHHKTLYEAAGFRHYKLIKTSGPMDIIEVRK
notes: pET32a fusion with N-terminal His6 tag kept (about 60 kDa on SDS-PAGE); E. coli BL21(DE3)
Purified protein
  Km: 31.0 ± 5.90 µM
  Vmax: 0.163 µmol/min/mg
  kcat: 0.117 s⁻¹
[1]
  Km: 52.1 ± 10.54 µM
  Vmax: 0.111 µmol/min/mg
  kcat: 0.08 ± 0.009 s⁻¹
